Experiment [1] addresses human IL-7Ra expressed on CHOK1-human IL-7Ra cells (human) (UniProt P16871). The experiment can be described thus: flow cytometry, CHOK1-human IL-7Ra cells; negative control. (A flow cytometer gives signals particle by particle.)
For experiment [2], the target named is cynomolgus IL-7Ra expressed on CHOK1-cyno IL-7Ra cells (cynomolgus) (UniProt Q38IC7). The experiment can be described thus: flow cytometry, CHOK1-cyno IL-7Ra cells; negative control.
In experiment [3] the target is T1, cynomolgus IL-7Ra expressed on CHOK1-cyno IL-7Ra cells (cynomolgus, UniProt Q38IC7 21-459).
T1 sequence: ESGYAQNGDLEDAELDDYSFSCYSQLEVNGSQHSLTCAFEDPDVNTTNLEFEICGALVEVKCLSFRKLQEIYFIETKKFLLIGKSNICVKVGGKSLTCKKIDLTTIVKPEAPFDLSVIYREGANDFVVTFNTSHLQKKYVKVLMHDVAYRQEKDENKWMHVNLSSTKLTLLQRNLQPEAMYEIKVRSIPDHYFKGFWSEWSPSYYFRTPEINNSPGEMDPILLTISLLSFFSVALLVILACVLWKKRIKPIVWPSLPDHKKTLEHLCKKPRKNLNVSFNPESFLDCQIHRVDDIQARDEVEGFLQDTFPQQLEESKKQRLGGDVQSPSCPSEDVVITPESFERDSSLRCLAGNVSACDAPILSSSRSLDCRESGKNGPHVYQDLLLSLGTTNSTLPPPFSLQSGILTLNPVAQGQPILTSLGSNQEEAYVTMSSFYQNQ
Description: flow cytometry on CHOK1-cyno IL-7Ra cells, MFI (upper right panel).

The target of experiment [4] is T2, human Fc-tag IL-7Ra protein (human, UniProt P16871 21-239).
T2 construct: also called human IL-7Ra protein; not shown: Fc tag fused to the N-terminus
T2 sequence: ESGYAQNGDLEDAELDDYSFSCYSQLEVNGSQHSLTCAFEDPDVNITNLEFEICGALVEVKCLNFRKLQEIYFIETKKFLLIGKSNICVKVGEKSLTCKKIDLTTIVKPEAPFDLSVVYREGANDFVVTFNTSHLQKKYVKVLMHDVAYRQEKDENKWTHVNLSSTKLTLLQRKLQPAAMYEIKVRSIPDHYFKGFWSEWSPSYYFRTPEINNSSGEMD
Description: ELISA, plate coated with human Fc-tag IL-7Ra protein, HRP-labelled secondary antibody, OD 450 (left panel).

In experiment [5] the target is T3, human IL-7Ra expressed on CHOK1-human IL-7Ra cells (human, UniProt P16871 21-459).
T3 construct: also called human IL-7Ra expressed on cell membrane; CD127
T3 sequence: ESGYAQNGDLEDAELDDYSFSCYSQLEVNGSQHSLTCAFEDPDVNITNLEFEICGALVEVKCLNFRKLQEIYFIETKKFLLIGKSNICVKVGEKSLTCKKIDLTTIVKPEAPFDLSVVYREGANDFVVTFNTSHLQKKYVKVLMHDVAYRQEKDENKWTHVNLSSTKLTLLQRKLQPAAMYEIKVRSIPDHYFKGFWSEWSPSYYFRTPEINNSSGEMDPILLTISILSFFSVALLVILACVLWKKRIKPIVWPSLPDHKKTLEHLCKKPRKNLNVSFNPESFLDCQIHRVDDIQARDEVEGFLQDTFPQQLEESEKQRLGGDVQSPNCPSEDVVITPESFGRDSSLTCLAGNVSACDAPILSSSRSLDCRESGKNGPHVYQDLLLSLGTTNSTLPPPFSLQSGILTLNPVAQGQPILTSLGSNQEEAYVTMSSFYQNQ
Description: flow cytometry blocking assay: binding of hIL-7-his (0.1 ug/ml) to CHOK1-human IL-7Ra cells in the presence of the antibody, anti-His Alexa Fluor 488, MFI (left panel).

Experiment [6] has as its target T3, human IL-7Ra expressed on CHOK1-human …. Description: flow cytometry, CHOK1-human IL-7Ra cells.
For experiment [7] the target is unchanged. Description: flow cytometry on CHOK1-human IL-7Ra cells, MFI (upper left panel).
Experiment [8] addresses T4, cynomolgus Fc-tag IL-7Ra protein (cynomolgus, UniProt Q38IC7 21-240).
T4 construct: also called cynomolgus IL-7Ra protein; not shown: Fc tag
T4 sequence: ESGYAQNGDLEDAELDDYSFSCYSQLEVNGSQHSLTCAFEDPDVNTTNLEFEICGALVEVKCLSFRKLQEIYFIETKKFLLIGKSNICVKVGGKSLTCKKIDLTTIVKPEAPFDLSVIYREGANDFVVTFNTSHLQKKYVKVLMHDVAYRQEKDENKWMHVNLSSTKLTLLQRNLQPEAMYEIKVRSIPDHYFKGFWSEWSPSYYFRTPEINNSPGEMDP
The experiment can be described thus: ELISA, cynomolgus Fc-tag IL-7Ra protein, HRP-labelled secondary antibody, OD 450 (right panel). (In general: In an ELISA, binding on a coated surface is turned into a signal by an enzyme label.)

Experiment [9] deals with T5, Human his-tag IL-7Ra protein (human, UniProt P16871 21-239).
T5 construct: Construct not described; Position of the tag unknown; also called IL-7Ra (Biacore analyte); not shown: his tag
T5 sequence: T2 sequence
Description: SPR Biacore 8K, antibody Fc-captured, human his-tag IL-7Ra analyte, 1:1 model.

Experiment [10] has as its target T1, cynomolgus IL-7Ra expressed on …. Description: flow cytometry, CHOK1-cyno IL-7Ra cells.
In experiment [11] the target is T3, human IL-7Ra expressed on CHOK1-human …. Description: flow cytometry blocking assay: binding of hIL-7-his (0.1 ug/ml) to CHOK1-human IL-7Ra cells in the presence of the antibody, anti-His Alexa Fluor 488, MFI (right panel).
For experiment [12] the target is unchanged. The experiment can be described thus: flow cytometry on CHOK1-human IL-7Ra cells, MFI (upper left panel). The source holds these as a separate data set.
Experiment [13] addresses T1, cynomolgus IL-7Ra expressed on …. The experiment can be described thus: flow cytometry on CHOK1-cyno IL-7Ra cells, MFI (upper right panel). This is another data set of the same source.
In experiment [14] the target is T3, human IL-7Ra expressed on CHOK1-human …. The experiment can be described thus: flow cytometry blocking assay: binding of hIL-7-his to CHOK1-human IL-7Ra cells in the presence of the antibody, MFI (right panel).

Read-outs that look alike come from different tables or passages of the source.

As usually defined, the EC50 is the midpoint of the concentration-response curve. Low readings indicate higher potency in that assay, high ones lower potency in that assay. The term EC50 (read off the curve) denotes the concentration at which the effect is half-maximal. Low values mean higher potency in that assay, high ones lower potency in that assay. Broadly, the Kd is the equilibrium constant for the complex coming apart. A higher Kd goes with a looser complex. By koff is commonly meant a measure of how fast the partners let go of each other. A higher koff goes with a short-lived complex. Usually kon stands for the second-order rate constant of association. A higher kon goes with faster complex formation.

For the molecule “isotype hIgG4 antibody (negative control)”, in [1], the EC50 was determined as 6.8 µg/mL and the Top (MFI) was found to be 73 MFI. In addition, in experiment [2], the concentration for a half-maximal effect (EC50) is 32.2 µg/mL and the Top (MFI) was determined as 93.7 MFI.

B1: ADX-914 (Tab1) (antibody, human IgG1, kappa, V domains shown)
VH: EVQLVESGGGLVQPGRSLRLSCAASGFTFDDHAMHWVRQAPGKGLEWVSGISWNSRGIGYADSVKGRFTIFRDNAKNSLYLQMNSLRAEDTALYYCAKDEYSRGYYVLDVWGQGTTVTVSS
VL: AIQLTQSPSSLSASVGDRVTITCRASQGISSALAWYQQKPGKAPKLLIYDASSLESGVPSRFSGSGSGTDFTLTISSLQPEDFATYYCQQFNSYPLWITFGQGTRLEIKR
notes: also called benchmark antibody ADX-914
Regarding B1, the 50% effective concentration (EC50 (read off the curve)) was approximately 0.2 µg/mL in experiment [3], approximately 0.01 µg/mL in experiment [4], approximately 0.1 µg/mL in experiment [7] and approximately 0.03 µg/mL in experiment [8]. Further, the “IC50 (read off the curve)” value in experiment [5] is approximately 0.1 µg/mL. Further, the values for the EC50 in experiment [6] and in [10] were 0.31 µg/mL and 0.289 µg/mL, respectively. Further, the “Top (MFI)” value in experiment [6] stood at 26000 MFI; in [10] it was 20800 MFI. This molecule also displayed a Kd in experiment [9] of 0.258 nM. The same molecule registered a koff in [9] of 0.000297 s⁻¹. In addition, the association rate constant (kon) in experiment [9] was determined as 1.15e+06 M⁻¹ s⁻¹.

B2: cmAb011 (chimeric Ab011) (antibody, V domains shown)
VH: QVQLQQSGAELMRPGASVTLSCKTSGYRFTDYELHWVKQTPVRGLEWIGGIDPKTGGTAYNQKFKGKAILTSDRSSSTTYMELRSLASEDSAVYYCTRSGGRWYFDVWGTGTTVTVSS
VL: DIVLTQSPASLAVSLGQRATISCRTSESVSIHLLHLMHWYQQKPGQPPKLLIYGASNLESGVPARFSGSGSETDFTLNIHPVEEEDAATYFCQQSIKDPYTFGGGTKLEIKR
notes: also called chimeric antibody Ab011
As to B2, the “EC50 (read off the curve)” value in [3] was approximately 0.3 µg/mL; in [4], approximately 0.02 µg/mL; in [7] it was approximately 0.2 µg/mL; in [8], approximately 0.04 µg/mL. Also, the figures for the half-maximal effective concentration (EC50) in experiment [6] and in experiment [10] were 0.0842 µg/mL and 0.134 µg/mL, respectively. The “Top (MFI)” value in [6] turned out to be 22400 MFI; in experiment [10], 18400 MFI. In experiment [9], the dissociation constant (Kd) worked out at 0.143 nM. For the same molecule, the koff in experiment [9] is 0.000234 s⁻¹. In experiment [9], the association rate constant (kon) was found to be 1.64e+06 M⁻¹ s⁻¹.

B3: OSE127 (Tab2) (antibody, human IgG4 S228P, kappa, V domains shown)
VH: QVQLVESGGGLVKPGGSLRLSCAVSGFTLSDYYMAWIRQAPGKGLEWVSTISASGLRTYYPDSVKGRFTISRDNAKNSLYLQMNSLRAEDTAVYYCARPLSAHYGFNYFDYWGQGTLVTVSS
VL: DIQMTQSPSSLSASVGDRVTITCRTSEDIYQGLAWYQQKPGKAPKLLLYSANTLHIGVPSRFSGSGSGTDYTLTISSLQPEDFATYYCQQYYDYPLAFGGGTKVEIKR
notes: also called benchmark antibody OSE127
With B3, the concentration giving a half-maximal response (EC50 (read off the curve)) is approximately 0.3 µg/mL in experiment [3]; approximately 0.02 µg/mL in [4]; approximately 0.08 µg/mL in experiment [12]; approximately 0.2 µg/mL in [7]; approximately 0.03 µg/mL in [8]; approximately 0.1 µg/mL in [13]. Also, the “IC50 (read off the curve)” value in experiment [11] is approximately 0.07 µg/mL. Moreover, the EC50 came to 0.387 µg/mL in experiment [6] and 0.51 µg/mL in experiment [10]. The “Top (MFI)” value worked out at 24300 MFI in experiment [6] and 19100 MFI in experiment [10]. This molecule also displayed a Kd in [9] of 0.385 nM. In experiment [9], this molecule gave a dissociation rate constant (koff) of 0.000252 s⁻¹. Besides, the association rate constant (kon) in [9] came out at 656000 M⁻¹ s⁻¹.

B4: HuAb013 (antibody, V domains shown)
VH: QVQLVQSGAEVKKPGASVKVSCKASGYRFTDYELHWVRQAPGQGLEWMGGIDPKTGGTAYNQKFKGKVTLTSDRSTSTVYMELSSLRSEDTAVYYCARSGGRWYFDVWGQGTTVTVSS
VL: DIVLTQSPASLAVSPGQRATITCRTSESVSIHLLHLMHWYQQKPGQPPKLLIYGASNLESGVPARFSGSGSGTDFTLTINPVEAEDTANYYCQQSIKDPYTFGGGTKVEIK
notes: Humanized version of cmAb011; also called humanized VL1 / humanized VH4
B4: the “IC50 (read off the curve)” value in experiment [14] is approximately 0.1 µg/mL. Further, in experiment [6], the response was half-maximal at 0.0326 µg/mL (EC50) and the “Top (MFI)” value was 24400 MFI. In [9], the Kd amounted to 0.18 nM, the koff was 0.000292 s⁻¹ and the kon turned out to be 1.63e+06 M⁻¹ s⁻¹. Besides, in experiment [10], the 50% effective concentration (EC50) stood at 0.0325 µg/mL and the “Top (MFI)” value was found to be 16300 MFI.

For the origin of these results see patent US20260250402A1 (C O INMAGENE PTE, published 2026).
